Test results: the supplement of paper PMC9170038

Tested on: MS2 coat protein
Test: apparent KD of MS2 coat protein; designed switch direction (-1 OFF switch, 1 ON switch): 1; higher = weaker reporter binding
In short: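 RNA switches sharing common flanks were transcribed by stalled E. coli RNA polymerase on Illumina chips. A doubling series of SNAP-549-labelled MS2 coat protein, from 0.7 or 1.5 nM to 3 µM, was applied in Tris-HCl pH 7.5 buffer with KCl, MgCl2, BSA, DTT, tRNA and Tween-20. Each step lasted 0.8–1.5 h at the bottom of the series and 10–20 min at the top. Normalised cluster fluorescence was curve-fitted, giving apparent KD as the per-design median over clusters.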

[1] = input ligand: microRNA oligo, concentration not stated
[2] = Eterna round: R95, input ligand: FMN 200 uM
[3] = Eterna round: R95, input ligand: microRNA oligo, concentration not stated
[4] = Eterna round: R95, input ligand: none

Sequence	apparent KD of MS2 coat protein (input ligand: FMN 200 uM) [µM]	apparent KD of MS2 coat protein [1] [µM]	apparent KD of MS2 coat protein (input ligand: none) [µM]	apparent KD of MS2 coat protein [2] [µM]	apparent KD of MS2 coat protein [3] [µM]	apparent KD of MS2 coat protein [4] [µM]
CUGAGCAAUCAAGGAUAUCACGUCGAUUAGACGUGAGAAGGUGAUCAUAACAUGAGGAUCACCCAUGUAUUACAUGAAGCUCAG [SSNG1/1-A2] (Eterna round: R96, puzzle: Same State NG 1)	0.975	0.692	0.74	–	–	–
CUGAGCGAUCGAGGAUAUCACGUCGAAUAGACGUGAGAAGGCGAUCAUAACAUGAGGAUCACCCAUGUAUUACAUGAAGCUCAG [SSNG1/4-A1] (Eterna round: R96, puzzle: Same State NG 1)	0.0132	0.0105	0.0178	–	–	–
CUGCUACAUGAGGAUCACCCAUGUUGGAGUAAUGCAGGAUAUGUGGGACCAGAAGAUAAAACAGAAGGGCAAGGAG [JR_SS!_Sub007] (puzzle: Same State 1)	–	–	–	0.018	0.0144	0.0288
CUUCGCGCCGCAGGAUAUGCCGACCCGUGUUGAGCAGAAGGGCGAGACAUGAGGAUCACCCAUGUCUAAAGAGCGCAUCAAUAA [Esedlaedbi] (Eterna round: R96, puzzle: Same State NG 1)	0.0231	0.0189	0.0459	–	–	–
CUUCUUCCUUUUACAUGAGGAUCACCCAUGUUUUCAUAUUGAGAGGAUAUCGUAUUUGGAAACAUCGAGAAGGCUCAUUUGUAU [JR_SSNG3_Sub074] (Eterna round: R96, puzzle: Same State NG 3)	0.0786	0.0986	0.223	–	–	–
GAAGGAUGAGCGUAGGAUAUAGGAGGAGUGACAUGAGGAUCACCCAUGUAGUAGGAGGGAGGGUACUAGAAGGACGAGGAAGAGG [JR_SS2_Sub068] (puzzle: Same State 2)	–	–	–	0.067	0.0322	0.0574
GACUAUCUAUCUCAGGAUAUCAUGUCAAAGACAUGAGGAUCACCCAUGUACCAGGAAACUGGUUAUGAGAAGGGAGAUAGAUAGG [Mat - Same State 2 - Mod - D43] (puzzle: Same State 2)	–	–	–	0.0811	0.0263	0.0388
GACUCUAGAGGAGGAUAUGCAGAGGAUCACCCUGUAGAAGGCCUCAUAAGGAGGAUAUGCAGAGGAUCACCCUGUAGAAGGCCU [pwkr ssNG DX.20] (Eterna round: R96, puzzle: Same State NG 1)	0.17	0.0855	0.272	–	–	–
GAGCCAGUCCGAGGAUAUUCAUAUUAAAACAUGAGGAUCACCCAUGUAGGCUCAGAAGAGCCUUGGGAGAAGGCGGACUGGCUC [Xeonanisa] (Eterna round: R96, puzzle: Same State NG 2)	0.0233	0.214	0.366	–	–	–
GAGGAACAUGAGGAUCACCCAUGUAAAGGGUUUAAAGGAUAUUAUUGGGAGAAAGUAGGGUAAGAAGGUUGAUUGG [JR_SS1_Sub087] (puzzle: Same State 1)	–	–	–	0.12	0.127	0.168
GAGGGACAGACCAACAUGAGGAUCACCCAUGUCCUCGCAGGUCAGGAUAUUAUGAGGAUCACCCAUGAGAAGGGACGGUGAACC (Eterna round: R96, puzzle: Same State NG 3)	0.587	0.34	0.491	–	–	–
GAGUAGUUGAAAGGAUAUAGAUUAUUGUAGGAUCUAGAAGGUUCUAACAUGAGGAUCACCCAUGUAGGACUAUUCCUGUGUAUC [Parity 88 - Jieux - Same State NG 1] (Eterna round: R96, puzzle: Same State NG 1)	0.00956	0.00927	0.0126	–	–	–
GAGUGACAUGAGGAUCACCCAUGUAGAAUAGAACAAGGAUAUGUGGAAGGCGGAGGAGAGACAGAAGGUGUUGAGG [JR_SS1_Sub058] (puzzle: Same State 1)	–	–	–	0.052	0.0771	0.119
GAGUGGUAAAGAGGAUAUGCAUUGUUAUUCACUGUAGAAGGUUUUAACAUGAGGAUCACCCAUGUAGGACUAUUCCUGUGUUUU [Parity 61 - Jieux - Same State NG 1] (Eterna round: R96, puzzle: Same State NG 1)	0.0124	0.0124	0.0188	–	–	–
GAGUGGUGGAGAGGAUAUACAUUGAUAAUCACUGUAGAAGGUUCUAACAUGAGGAUCACCCAUGUAGGACUAUUCCUGAGAGUU [Parity 53 - Jieux - Same State NG 1] (Eterna round: R96, puzzle: Same State NG 1)	0.0116	0.00989	0.012	–	–	–
GAGUUACUAUCUCAGGAUAUCAUGUCAAAGACAUGAGGAUCACCCAUGUACCAGGAAACUGGUUAUGAGAAGGGAGAUAGUAACG [Mat - Same State 2 - Mod - D52] (puzzle: Same State 2)	–	–	–	0.112	0.116	0.154
GCAAACACAUGAGGAUCACCCAUGUGGAAAGAGCAAUUAGGCUAGGAUAUUCAUGUCGUUUGCAAGAAGAAGGAGCCAUAGUGG [Eternabot solution 20] (Eterna round: R96, puzzle: Same State NG 3)	–	0.205	–	–	–	–
GCAGCACAUGAGGAUCACCCAUGUCUUCGGAGUCGAGGAUAUGGUCACUGUAAACAGUGGCCAGAAGGCGAGUUGC [SS1 - Son of Teenbexe v5] (puzzle: Same State 1)	–	–	–	–	0.0243	–
GCAGCCGGCACUGAGGAUAUUCAUAUUAAAACAUGAGGAUCACCCAUGUAGGCCAGAAGGCCUUGGGAGAAGGCAGGUCGGCUGG [Mat - Same State 2 - Mod of UCT - D63] (puzzle: Same State 2)	–	–	–	0.0208	0.219	0.232
GCAGGACGGUAAAACAUCUCACAUGAGGAUCACCCAUGUUGUGAGGAUAUGGAUCCUAAUUGGAUCCAGAAGGCACGGUCCUGC [Fiskers NG3ss - 30] (Eterna round: R96, puzzle: Same State NG 3)	0.0249	0.0177	0.0278	–	–	–
GCAGUACAUGAGGAUCACCCAUGUCUCUAAAGUCGAGGAUAUGGGCAGGUUAUAUCCGAACCAGAAGGCGAACUGC [SS1 Teenbexe 11] (puzzle: Same State 1)	–	–	–	0.0686	0.26	0.527
GCAUCACAUGAGGAUCACCCAUGUCUUCGGAGUGGAGGAUAUGGUCACUGUAAACAGUGGCCAGAAGGCCGGAUGC [SS1 - Son of Teenbexe v2] (puzzle: Same State 1)	–	–	–	–	0.0633	–
GCCAACGCAUGAGGAUAUGGCACCUUAUUGGUGCCAGAAGGCGUGUGUAUUCACAUGAGGAUCACCCAUGUAUUAUAGUUGGCA [Fiskers NG1ss - 16] (Eterna round: R96, puzzle: Same State NG 1)	0.0241	0.169	0.189	–	–	–
GCCCAGAGUAUAUGGGUACAAGCUUUUUGACAUGAGGAUCACCCAUGUACUCGUCUUAUGUGCAGUCCGUAGACUGC [JL-shm-2.19 Brourd mod] (puzzle: Sensor for hsa-mir-208a)	–	–	–	0.0182	0.0273	0.0174
GCCGCGUUUAACGCCUACAUGAGGAUCACCCAUGUAUGUAGGCAGGAUAUCGUUUGCUUUGCAAACGAGAAGGGCUGUAGUGGC [salish99_SSNG3_R04_006] (Eterna round: R96, puzzle: Same State NG 3)	0.0259	0.0739	0.0809	–	–	–
GCCGCGUUUCGCGCCUACAUGAGGAUCACCCAUGUUUGUAGGCAGGAUAUCGUUUGCUUUGCGGGCGAGAAGGGCUGUUGUGGC [salish99_SSNG3_R04_017] (Eterna round: R96, puzzle: Same State NG 3)	0.035	0.0289	0.0388	–	–	–
GCCGCGUUUCGCGCCUACAUGAGGAUCACCCAUGUUUGUCGGCAGGAUAUCGUCCGCUCUGCGGGCGAGAAGGGCUAUUGUGGU [salish99_SSNG3_R04_027] (Eterna round: R96, puzzle: Same State NG 3)	0.0288	0.017	0.0245	–	–	–
GCGAGCGUACUUGCAACAUGAGGAUCACCCAUGUUAACUGGACAGGAUAUGGUACCGUUUCGGUACCAGAAGGGUUCCUUCAUG [JL SSNG3 3.60] (Eterna round: R96, puzzle: Same State NG 3)	0.167	0.166	0.268	–	–	–
